In patent US7927849B2, “Laccase enzyme and use thereof” (AB Enzymes OY, priority 2004, dated 2011):
“And” between values parts separate entries of the source, which are not always exact repeats. Equal values may be shown once.

B1: wt TaLcc1: Wild type laccase purified from Thielavia arenaria ALKO4197 culture supernatant (protein)
chain: MKSWAAAVALMVGILSPHAAAAPPANPVQRDMLQVLEARQSGPTCNTPSNRACWTNGFDINTDYEVSTPNTGRTVAYQLTLTEKENWIGPDGVLKNVVMLVNDKIIGPTIRANWGDNIEVTVINNLKTNGTSMHWHGLRQLGNVFNDGANGVTECPIPPKGGRKTYKFRATQYGTSWYHSHFSAQYGNGVVGTIQIDGPASLPYDIDLGVFPLMDYYYRSADELVHFTQSNGAPPSDNVLFNGTARHPETGAGQWYNVTLTPGKRHRLRIINTSTDNHFQVSLVGHNMTVIATDMVPVNAFTVSSLFLAVGQRYDVTIDANSPVGNYWFNVTFGDGLCGSSNNKFPAAIFRYQGAPATLPTDQGLPVPNHMCLDNLNLTPVVTRSAPVNNFVKRPSNTLGVTLDIGGTPLFVWKVNGSAINVDWGKPILDYVMSGNTSYPVSDNIVQVDAVDQWTYWLIENDPTNPIVSLPHPMHLHGHDFLVLGRSPDELPSAGVRHIFDPAKDLPRLKGNNPVRRDVTMLPAGGWLLLAFKTDNPGAWLFHCHIAWHVSGGLSVDFLERPNDLRTQLNSNAKRADRDDFNRVCREWNAYWPTNPFPKIDSGLRHRFVEESEWMVR
modifications: Thielavia arenaria ALKO4197; (1)..(617) Deduced amino acid sequence of Thielavia arenaria ALKO4197 laccase 1 (Ta Lcc1)
notes: Wild type laccase purified from Thielavia arenaria ALKO4197 culture supernatant

Experiments:
[1] = test system: recombinant Thielavia arenaria TaLcc1 laccase (rTaLcc1); format: biochemical
Experimental: The inhibition effect of different compounds on the activity of the recombinant TaLcc1 laccase was determined as described in Example 2.

[2] = target: T1, Thielavia arenaria ALKO4197 laccase TaLcc1, wild type (wt TaLcc1), SEQ ID NO: 12 (Canariomyces arenarius, UniProt F6N9E7); assay: biochemical; details: pH 4.5, read-out: Inhibition (%) of laccase
T1 construct: predicted mature residues 22-604

[3] = test system: Thielavia wild type laccase (wt TaLcc1); details: pH 4.5
[4] = Specific activity on ABTS; format: biochemical; details: 25 mM succinate buffer pH 4.5, 25° C.
Experimental: The activity assay was carried out in accordance with the method developed by Niku-Paavola et al. (1988). The sample was diluted with 0.025 M succinate buffer, pH 4.5. […] The activity is expressed as nano katals.
(§1) Specific activities of the purified Thielavia laccase were determined towards different laccase substrates.

[5] = Specific activity on DMP; format: biochemical; details: 25 mM MES buffer, pH 5.5
Experimental: as §1

[6] = Specific activity on syringaldazine; format: biochemical; details: 25 mM MES buffer, pH 5.5
Experimental: as §1

[7] = Specific activity on guaiacol; format: biochemical; details: 25 mM MES buffer, pH 5.5
Experimental: as §1

[8] = Isoelectric focusing (pI); format: physicochemical; details: pH range 3-9, ABTS staining
Experimental: Molecular weight of the Thielavia arenaria laccase (wt TaLcc1) was determined on SDS-PAGE according to Laemmli (1970). The gels used in the SDS-PAGE analysis were ready-made 12% Tris HCl gels (BioRad). Protein bands were visualized by staining with Coomassie Brilliant Blue (R 350; Pharmacia) and compared with molecular weight markers (Prestained Protein Marker Broad Range #7708S; New England BioLabs, Beverly, Mass.). The molecular weight of the Thielavia areanaria laccase was approximately 80 kDa. The isoelectric point of the laccase was determined with isoelectric focusing within the pH range of 3-9 (Pharmalyte IEF, Pharmacia) on a LKB 2117 Multiphor II Electrophoresis System (LKB Pharmacia, Bromma, Sweden) according to the manufacturer's instructions.
The purified recombinant Thielavia arenaria TaLcc1 was characterized in terms of pH optimum, thermal stability, and pI as described in Example 2. The molecular weight was determined by MALDI-TOF mass spectrometry on a Ultraflex™ time-of-flight instrument (BrukerDaltonics, Germany) as previously described (Palonen et al., 2003). The redox potential of TaLcc1 was also determined with a combined Pt-AgCl/KCl microelectrode at pH 5.0 according to Sigoillot et al (2004)

Molecule	Inhibition (%) of laccase rTaLcc1 [1]	inhibition at 10000 µM [2]	Inhibition(%) wt TaLcc1 [3]	Specific activity on ABTS [4]	Specific activity on DMP [5]	Specific activity on syringaldazine [6]	Specific activity on guaiacol [7]	pI [8]
O=C(O)CN(CCN(CC(=O)O)CC(=O)O)CC(=O)O [EDTA]	5%	0%	0%	–	–	–	–	–
[Cl-].[Na+] [NaCl]	–	–	42% and 35%	–	–	–	–	–
B1	–	–	–	1020 nkat/mg	260 nkat/mg	490 nkat/mg	63 nkat/mg	5.5-6.9
